Experiment: label from the status in PepcDB records

## MLHDWGVIAAALAYIGFLFVVASWGDRLSQGQRERAGGLIYPLSLAIYCTSWTFFGSVGFASRSSFDFLAIYVGPVLVVLVATPLLRRVIRLAKSQNITSIADFIAARYGKSQKVAATVAIIAIIGSVPYIALQLKAVSSSLQTILGDDHNIADIPIVGDIALIVAMAMALFTVLFGTRQASATEHQHGLMLAVATESIVKLVAFLAAGIFVTFWMFSPSALIERAMQMPEAVRALDSTSPANFLTMTALSFCAFMMLPRQFHVSVVENSNEAEVGRARWLFPLYLVAINLFVIPIALAGLVKFPFGKVDSDMYVLALPIDADAPMLSVAVFIGGLSAATAMVIVECVALAVMVSNDLVMPLVLKRHGAPRPDEQRNFGRFLLTVRRVAIFAILILAYLYYRALGNTQLAAIGLLSFAAIAQFAPSFFGGLIWRRATARGAIGGLLVGFAVWAYTLFIPSFMENSTTGLLLLQHGPWGIEALRPQALFGSDLPPLLHGVLWSLSLNLIAYILLSLLRQPSSIERLQAEVFVPDALTPMTPAFRRWRTTVTVQDIVGAVSQYLGPERARDSFRSFAAGRRITLDPAAPADFELLKHAEHLIASSIGAASSRLVLSLLLRKRTVSAEAALKLLDDSHAALHFNREILQTALNHVRQGIAVFNPELQLICSNRQFGEILGLPPHIIQIGIPLIEILEFLASNSIAPIDAEAHTQMRMAAYTTEGEPFIERFPDRHLVVEVRANRMPDGGLVITFSDVTPSFEAAEALERANATLERRVRERTEELTRLNSQLALAKSTAEEANISKTRFLAAASHDILQPLNAARLYATSLVERQNGGEDSRLVENIDESLQAIEEIIGALLDISRLDAGAMTPSLSNFVIGDLMRSLEIEFSPTARAKGLELTFVPCSLPVQSDRLMLRRLMQNLISNAIKYTPQGRVLVGCRRQGQSLRIGIYDTGVGVPILKRGEIFKEFHRLEQGARIARGLGLGLSIVERLARVLNHGIALDSNRGGGSCFSVTVPVAEAVNHTAAVTSATPLSRASMSGILVVCIENDPAILDGMKTLLTTWDAKVIAVADPEAAIRAIESSEQRVTGLLVDYHLDRGNGIAAIREIRARFGQSIPAILITADRSPGVRASARQEEIAVLNKPVKAASLRALLSQWHAQQSVVAAE
  protein production: failed

## MLKGPLKGCLNMSKKVIVIAGTTGVGKSQLSIQLAQKFNGEVINSDSMQVYKDIPIITNKHPLQEREGIPHHVMNHVDWSEEYYSHRFETECMNAIEDIHRRGKIPIVVGGTHYYLQTLFNKRVDTKSSERKLTRKQLDILESTDPDVIYNTLVKCDPDIATKYHPNDYRRVQRMLEIYYKTGKKPSETFNEQKITLKFDTLFLWLYSKPEPLFQRLDDRVDDMLERGALQEIKQLYEYYSQNKFTPEQCENGVWQVIGFKEFLPWLTGKTDDNTVKLEDCIERMKTRTRQYAKRQVKWIKKMLIPDIKGDIYLLDATDLSQWDTNASQRAIAISNDFISNRPIKQERAPKALEELLSKGETTMKKLDDWTHYTCNVCRNADGKNVVAIGEKYWKIHLGSRRHKSNLKRNTRQADFEKWKINKKETVE
  protein production: failed

## MLSEQALELIDIVARVGSFTAAANRLHKVPSAVSYAVKQIEEELGVVLFERHHRSVTLTPAGGHFVKQARNLLTQIDEMKRGTQRVANGWQPTLSIALDNIVRADRISVLIADFYRHFHDIELIIRIEVFNGVWEALATGHSDVAIGATTAIPVGGVFQYKDMGDIEWAFLVSKNHPLANIDRPLTDEELRPFPSICLEDTSREIPKRMTWLLENQRRLVVPDWIRAINCFREGLGIGYMPVHLASVFIKAGALVEKQLENPKLTSPCCLAWNADKMSPALAWVLDYLGDTDKLHREWLA
  protein production: failed

## MAVLSMLGIIDAKPKVGYFYLGQYHASIGTSHFEKMTVSEIMGIPLTVHQKDSVYDVIVHIFMEDAGCAFILDDDDFLCGVVSRKDLLKISIGGGDLSKMPIGMVMTRMPHVTTVLENESLFAAADKLVSRKVDSLPVVRHDKQYPEKFKVIGKLSKTILASLFLEIRDY
  protein production: failed

## MTKKAILLSFLGGFLSLSLEVIWIRLLGFQTFSLPQAFSFTLALFLLGIAFSSFIGKKVCQQGDASINYIGRIFFIAALFDCLAIGLISTTSNSFTNLVYSIFSIFCCALLRGIVFPIVHHLGSEHKKTGAAISNVYFANVLGCTIAPIFIGFYLLDQFTTQQTYLIVISITLIIACFCLTKRVFKAINALFAISVVFATALLPEKMISTLANEEDMQLETLIENKHGIIQVYLDKNQDHLVYGSNVYDGQLNVNLNHNSNGIHRAYLLPAHRK
  protein production: failed

## MMRPKVYFKTFGCRTNLFDTQIMIKNLQNFELTEIEESADIVVVNSCTVTNGADSGVRSYLHRLKSEGKRVYLTGCGVLTRGEEIFTQELAFGVFGHSYKEQIDSLLSQKTRFSFKGDLEHIDSTVITEFIGKSRAFVKVQEGCDFSCSYCIIPSVRGKARSLPVDRIVSQVEILAQHGFGEFVLTGTNVGSYGKESGLNVAKLLKALSQIKGVKRLRLGSLEPSQIDAEFMELLEEPFMARHLHIALQHTSPKMLQIMNRRNEAQGDLALFERLAQKGYALGTDFILGHPGESEEVWKEAWERFVAFPLTHLHAFVYSPREGTPSSLMKDRISGNIAKERMRILQERVRENNHHFRQKGEKLWVLIESEREGGLYQGLDQFFNRIEIRSSDSLAGRWLEVSDYEAESEINRAELL
  protein production: failed

## STMSGYLYRSKGSKKPWKHLWFVIKNKVLYTYAASEDVAALESQPLLGFTVTLVKDENSESKVFQLLHKGMVFYVFKADDAHSTQRWIDAFQEGTV
  protein production: not failed

## MVMNKLILFGSIFFKCWQQNRISISAGYLTYNTMLALVPLVMVVFSVFTFFPIFTEATELLKTFVYDNFAPNAGNVVEEYVELFVSNSQKMGLVSMLGLFIVAVMLISSIDQSLNDIWHNTRKRSLLLSFLLYILILIFAPLLAGASIAITTYIMSFEVFSENGIFSFSHYLLEYAPFLLVWLLFTLVYWIVPNTTVAFRHATIGALFAASFFTLGKQAFIWYVVTFPSYQAIYGTLAVLPIMIVWIHLSWQVVLLGGQFAAVLKEINMLKENER
  protein production: not failed

## MQIGLEAGLTNQLIDEIDQQPGHLPLLEFALTQLWSKQQNRLLTHQAYQEIGGVEEALANHAEAVYAQLTEADRQRAQQIFIQLVRLGDDTEATRRLTTREEVRLENWDLVTRLASSRLVVTNRNESTAEETVEIVHEALIRSWGRLEQWLIVDGDFLRWREQLRLAIRLWENSGHDQGVLLRGKALIDAQEWQLQRAQELNTNEIRFINKSGELRELEVKQQQRIRKIGISSLVTGLILALGLAGVAWLQGQKARMSETKAISSSAESFLNANLEFDGLIASIRAGRRIKGTDGIDANTRTQITETLQQSINFVREKNRLAEHDGMLESVSFSPDSKFIATASRDKTVKIWSLDGKKQLVVLREEKGEGFNSVAFSPDGTLMATGSWDNTAKIWSREGKRLHTLDGHKEAVLEVAFSPDSQLLATASWDNTVKLWSREGKLLHTLEGHKDKVNSITFSPDGQLIATVGWDNTMKLWNLDGKELRTFRGHQDMIWSVSFSPDGKQIATASGDRTVKLWSLDGKELQTLRGHQNGVNSVTFSPDGKLIATASGDRTVKLWNSKGQELETLYGHTDAVNSVAFSPDGTSIATAGNDKTAKIWKLNSPNSIIVRGHEDEVFDLVFSPNGKYIATASWDKTAKLWSIVGDKLQELRTFNGHQGRVNKLSFSPDGKYIATTSWDKTAKLWNLDGTLQKTLTGHKDTVWSVNFSPDGQLIATASEDKTVKLWNRDGELLKTLPRQSSVVNSAVFSPDGKLIATAGWDKTVKIWSIDGRLQKTLTGHTSGINSVTFSPDGKLIASASWDNTVKIWNLDGKELRTLRGHKNVVHNVTFSPDGKLIATASGDNTVKIWNINGQELRTLRGYKDAVWSLRFSLDGKTLATGSRYDIVVWHLYLDDLDQLLVRGCDWARDYLQNNPNVNPDEKSLCDGIRPIAQQ
  protein production: failed

## MEVERKIVSLEALYIVYDADGTVAGELLYLLRKWLGKGHCAACDITHGPRKVKPEWTILQKTGWLGVPLFNIHRDEMEPKLRSAVSCALPCVAALVDNGDYVLLLQPEDLESCKGQVSKLQEKIVEALKDFGFQVNESFTSVVTSDLSDTCPSTLDREKEEDDAVVPF
  protein production: failed

## MGSSHHHHHHENLYFQGSNIAFYVVSDVHGYIFPTDFTSRNQYQPMGLLLANHVIEQDRRQYDQSFKIDNGDFLQGSPFCNYLIAHSGSSQPLVDFYNRMAFDFGTLGNHEFNYGLPYLKDTLRRLNYPVLCANIYENDSTLTDNGVKYFQVGDQTVGVIGLTTQFIPHWEQPEHIQSLTFHSAFEILQQYLPEMKRHADIIVVCYHGGFEKDLESGTPTEVLTGENEGYAMLEAFSKDIDIFITGHQHRQIAERFKQTAVIQPGTRGTTVGRVVLSTDEYENLSVESCELLPVIDDSTFTIDEDDQHLRKQLEDWLDYEITTLPYDMTINHAFEARVAPHPFTNFMNYALLEKSDADVACTALFDSASGFKQVVTMRDVINNYPFPNTFKVLAVSGAKLKEAIERSAEYFDVKNDEVSVSADFLEPKPQHFNYDIYGGVSYTIHVGRPKGQRVSNMMIQGHAVDLKQTYTICVNNYRAVGGGQYDMYIDAPVVKDIQVEGAQLLIDFLSNNNLMRIPQVVDFKVEK
  protein production: not failed

## MTRTMSFHKNCELCTTAGGEILWQDALCRVVHVENQDYPGFCRVILNRHVKEMSDLRPAERDHLMLVVFAVEEAVREVMRPDKINLASLGNMTPHVHWHVIPRFKRDRHFPNSVWGETKRESLPQALDQGSTTALKKAISVRLDQGEPVFMGM
  protein production: not failed

## MLAERGANITGLDISGPMLQQGREKAQATGVDDRVEFMRGDAARLPFPDDHFDTVFAMRFFHLADTPAAFLAEMRRVSKEQVFFDTFNRFSTRSIYNWALPMGSRLYSRWEIDRLLDGAGLELTDANHDWLLPYGFYRKIPNELAASFRSLDTALGGTPLGEKLASVSYWNTHVLEHHHHHH
  protein production: failed

## MKKTFEKVYHLKLSIKGITPQIWRRIQVPENYTFLDLHKAIQAVMDWEDYHLHEFEMVNPKTGMLDKIGAEGDDFDAFGGPLVSEKKAKLSDYFTLENKEALYTYDFGDNWQVKVRLEKILPRKEGVEYPICTAGKRAAVPEDSGGVWGYEEMLEVLKDSEHEEYEDTVLWLGDDFDPEYFDPKDVSF
  protein production: not failed

## LNDLKESSNNRKARVLYDYDAANSTELSLLADEVITVFSVVGMDSDWLMGERGNQKGKVPITYLELLN
  protein production: not failed

## TIDRGIQTQIESLVERWNSEFKRSDIRNLAILVIDIRTNQAIAYCGNVHFDKEQSGNQVDVIRSPRSTGSILKPFLYYAMLQEGEILPNTLLPDIPVNINGFTPQNFNLQFEGAVPASEAIARSLNIPSVTMLQRYGVPKFHSFLKQIGLTTLNRPSSHYGLSLILGGAEATLWDITSAYANMGRSLNRLPQFPCTLLLSDSTSVHRPSFQSGAVWQTFDAIKEVNRPEEIDWRTIPSMQTIAWKTGTSYGFRDAWAVGVTPKYAVGVWVGNATGEGKPGLVGARTAGPVLFDVFNLL
  protein production: failed

## MLDRLRSIPVRGLFARLFSWLFFGLAFALVAATIVDVFELLNSDEPLMQAMINGVNGSIIALAVYELAMVIRSEYSGRSETHDIVTMMRRTLPRFISTVCVAMSLEGLIMIIKYSQLDLAGNLVYPVAIIASTALLLAALGVFLKMAPKEIGANGCDESCTTK
  protein production: failed

## MLVQKNEAFLWLHFYLISNFIVVIMQMFILVMYYLIIVDHSFVELNEQVNPLFSFLLFVFHSDLSFFPVLVQLIF
  protein production: failed

## MLTSFKLHSLKPYTLKSSMILEIITYILCFFSMIIAFVDNTFSIKIYNITAIVCLLSLILRGRQENYNIKNLILPLSIFLIGLLDLIWYSAFKVDNSPFRATYHSYLNTAKIFIFGSFIVFLTLTSQLKSKKESVLYTLYSLSFLIAGYAMYINSIHENDRISFGVGTATGAAYSTMLIGIVSGVAILYTKKNHPFLFLLNSCAVLYVLALTQTRATLLLFPIICVAALIAYYNKSPKKFTSSIVLLIAILASIVIIFNKPIQNRYNEALNDLNSYTNANSVTSLGARLAMYEIGLNIFIKSPFSFRSAESRAESMNLLVAEHNRLRGALEFSNVHLHNEIIEAGSLKGLMGIFSTLFLYFSLFYIAYKKRALGLLILTLGIVGIGLSDVIIWARSIPIIIISAIVLLLVINNRNNTIN
  protein production: failed

From a protein production outcome set (Wang et al. 2014)
